B3: Zebrafish (Danio rerio) RET extracellular domain (residues 22-626) (domain or fragment, UniProt A8E7C6 22-626, looked up)
chain: GLYFPQRLYTENIYVGQQQGSPLLQVISMREFPTERPYFFLCSHRDAFTSWFHIDEASGVLYLNKTLEWSDFSSLRSGSVRSPKDLTLKVGVSSTPPMKVMCTILPTVEVKLSFINDTAPSCGQVELSTLCFPEKISNPHITENREPGALRQLRRFTHMSICPNYTISYGVVAGSSVPFAVDDSTSELVVTAQVDREEKEVYHLDIVCMVRTERNLEEVFRSLHVNIYDEDDNSPYVNGTDTEDVLVEFDRSEGTVFGTLFVYDRDTTPVYPTNQVQNKLVGTLMTNDSWIKNNFAIEHKFREEKAIFGNVRGTVHEYKLKLSQNLSVTEQRSFLLGYLVNDTTFPGPEGTVLLHFNVTVLPVPIRFSNVTYSFTVSQKATTYSQIGKVCVENCQKFKGIDVTYQLEIVDRNITAEAQSCYWAVSLAQNPNDNTGVLYVNDTKVLRRPECQELEYVVIAQEQQNKLQAKTQLTVSFQGEADSLKTDEPRFPACAEKRQRGDCEATRGLGAPTGRCQWRQGRDKGISKRYSTCSPNLGTCPDGYCDAIESKNISICPQDCSSEAIIGGYERDLYGIKAGHGTCYCFEGKCFCERDEPEDDICNDMC
notes: RET, Danio rerio, UniProt A8E7C6, extracellular domain, residues 22-626; cloned from zRET-CS2-MT+; The protein is glycosylated; also called zRET^ecd; zRET; source: Hi5 insect cells, baculovirus, secreted

Key:
[1] = target: B3; assay: BLI; BLItz; His-tagged zGFRα1 (58 μM, 4 μl) immobilised on Ni-NTA tips; pre-mixed zRET^ecd and zGDNF at 0.3-44 μM; 20 mM HEPES pH 8, 150 mM NaCl, 1 mM CaCl2; plateau values fitted as Scatchard plots; triplicate; conditions: both partners purified
[2] = target: the molecule itself; assay: SDS-PAGE with and without DTT; purified zGDNF on a Coomassie-stained gel, with 1 mM DTT or without
[3] = target: the molecule itself; assay: SEC + native gel or EMSA; affinity-purified zRET^ecd separated by SEC into two peaks; fractions and pools run on BN-PAGE and SDS-PAGE

B1: Complex of His-tagged zebrafish GFRα1 (residues 31-351) and zebrafish GDNF (complex, zebrafish (Danio rerio))
chain 1: DCVKANELCLKEPGCSSKYRTMRQCVAGRESNFSMATGMEAKDECRLVLDALKQSPLYNCRCKRGMKKEKNCLRIYWGIYQHLQGNDLLEDSPYEPVNSRLSDIFRLAPIYSGEPALAKENNCLNAAKACNLNDTCKKYRSAYISPCTSRVSTAEVCNKRKCHKALRQFFDKVPPKHSYGMLYCSCPLGDQSACSERRRQTIVPACSYEDKERPNCLTLQVSCKTNYICRSRLADFFTNCQPEPLSLSGCLKENYADCLLSYSGLIGTVMTPNYLRSPKISVSPFCDCSSSGNSKEECDRFTEFFTDNACLRNAIQAFGNG
chain 2: SSDVEPQMKRDRVRQKAAANTEKSGGRGRGERKRSRGRARSRDDRVKGQGRGCLLKEIHLNVTDLDLGYRTKEELIFRYCSGPCHDAETNYDKILNNLTHNKKLDKDTPSRTCCRPIAFDDDISFLDDSLEYHTLKKHSAKKCACV
notes: GDNF family receptor alpha-1, Danio rerio, UniProt Q98TT9, residues 31-351, lacking the GPI-anchor; Glial cell line-derived neurotrophic factor, Danio rerio, UniProt Q98TU0, mature GDNF, residues 90-236; as m6; In the BLI experiment His-tagged zGFRα1 was held on the Ni-NTA tip, and zGDNF was supplied pre-mixed with zRET^ecd; The stoichiometry of the complex was not measured here; also called …
- Kd [1]: 5.9 ± 1.5 µM

B2: Zebrafish (Danio rerio) mature GDNF (residues 90-236) (ligand, UniProt Q98TU0 90-235, looked up)
chain: SSDVEPQMKRDRVRQKAAANTEKSGGRGRGERKRSRGRARSRDDRVKGQGRGCLLKEIHLNVTDLDLGYRTKEELIFRYCSGPCHDAETNYDKILNNLTHNKKLDKDTPSRTCCRPIAFDDDISFLDDSLEYHTLKKHSAKKCACV
notes: Glial cell line-derived neurotrophic factor, Danio rerio, UniProt Q98TU0, mature GDNF, residues 90-236; 'zGDNF' is the construct in the original pK503.9 vector (Flag-tag only); Whether its Flag tag was removed is not clear; It appears as a mixture of a DTT-sensitive dimer and monomer, and it is glycosylated; also called zGDNF; zebrafish GDNF; source: Hi5 insect cells, baculovirus, secreted; …
- stoichiometry N [2]: 2

Binder: B3
- stoichiometry N [3]: 2

Reference: article PMC5415192, “Zebrafish GDNF and its co-receptor GFRα1 activate the human RET receptor and promote the survival of dopaminergic neurons in vitro” (PLoS ONE, 2017)
